B1: Azoarcus group I ribozyme (parent)
chain: GUGCCUUGCGCCGGGAAACCACGCAAGGGAUGGUGUCAAAUUCGGCGAAACCUAAGCGCCCGCCCGGGCGUAUGGCAACGCCGAGCCAAGCUUCGGCGCCUGCGCCGAUGAAGGUGUAGAGACUAGACGGCACCCACCUAAGGCAAACGCUAUGGUGAAGGCAUAGUCCAGGGAGUGGCGAAAGUCACACAAACCGG

Variants of B1 are the subject of this data set. Nature of the data set: reverse-splicing fitness (ratio to wild type); higher = more active; in vitro selection; Mg2+ level not given. In a few lines:
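An in vitro group I ribozyme library with randomized positions was T7-transcribed and gel-purified. In triplicate, 10 pmol RNA in EPPS pH 7.5 was reacted with 50 pmoles of a 30-nt RNA substrate for 1 h at 37 °C across several added MgCl2 levels (1–48 mM), then stopped with EDTA. Products were reverse transcribed from a substrate-complementary primer, PCR-amplified and sequenced (HiSeq 4000). Fitness is a variant's read proportion after selection over that before, normalised to wild type.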
As for GUGCCUUGCGCCGGGAAACCACGCAAGGGAUGGUGUCAAAUUCGGCGAAACCUAAGCGCCCGCCCGGGCGUAUGGCAACGCAGAGCCAAGCUUCGGCGCCUGCGCCGAUGCAGGUGUAGAGACUAGACGGCACCCACCUAAGGCCAACGGUAUGGUGAAGGCAUAGUCUAGGGAGGGGCGAAAGUCACACAAACCGG [C82A A111C A145C C150G C169U U176G], the reverse-splicing fitness is 0.00706.
Regarding GUGCCUUGCGCCGGGAAACCACGCAAGGGAUGGUGUCAAAUUCGGCGAAACCUAAGCGCCCGCCCGGGCGUAUGGCAACGCAGAGCCAAGCUUCGGCGCCUGCGCCGAUGCAGGUGUAGAGACUAGACGGCACCCACCUAAGGCCAACGGUAUGGUGAAGGCAUAGUCUAGGGAGAGGCGAAAGUCACACAAACCGG [C82A A111C A145C C150G C169U U176A], the reverse-splicing fitness came to 0.00753.
Turning to GUGCCUUGCGCCGGGAAACCACGCAAGGGAUGGUGUCAAAUUCGGCGAAACCUAAGCGCCCGCCCGGGCGUAUGGCAACGCAGAGCCAAGCUUCGGCGCCUGCGCCGAUGCAGGUGUAGAGACUAGACGGCACCCACCUAAGGCCAACGGUAUGGUGAAGGCAUAGUCUAGGGAGCGGCGAAAGUCACACAAACCGG [C82A A111C A145C C150G C169U U176C], the reverse-splicing fitness was determined as 0.0112.
As for GUGCCUUGCGCCGGGAAACCACGCAAGGGAUGGUGUCAAAUUCGGCGAAACCUAAGCGCCCGCCCGGGCGUAUGGCAACGCAGAGCCAAGCUUCGGCGCCUGCGCCGAUGCAGGUGUAGAGACUAGACGGCACCCACCUAAGGCCAACGGUAUGGUGAAGGCAUAGUCGAGGGAGCGGCGAAAGUCACACAAACCGG [C82A A111C A145C C150G C169G U176C], the reverse-splicing fitness worked out at 0.00759.
Consider GUGCCUUGCGCCGGGAAACCACGCAAGGGAUGGUGUCAAAUUCGGCGAAACCUAAGCGCCCGCCCGGGCGUAUGGCAACGCAGAGCCAAGCUUCGGCGCCUGCGCCGAUGCAGGUGUAGAGACUAGACGGCACCCACCUAAGGCCAACGGUAUGGUGAAGGCAUAGUCGAGGGAGGGGCGAAAGUCACACAAACCGG [C82A A111C A145C C150G C169G U176G], for which the reverse-splicing fitness was found to be 0.00714.
Turning to GUGCCUUGCGCCGGGAAACCACGCAAGGGAUGGUGUCAAAUUCGGCGAAACCUAAGCGCCCGCCCGGGCGUAUGGCAACGCAGAGCCAAGCUUCGGCGCCUGCGCCGAUGCAGGUGUAGAGACUAGACGGCACCCACCUAAGGCCAACGGUAUGGUGAAGGCAUAGUCGAGGGAGAGGCGAAAGUCACACAAACCGG [C82A A111C A145C C150G C169G U176A], the reverse-splicing fitness is 0.00778.
The figure for GUGCCUUGCGCCGGGAAACCACGCAAGGGAUGGUGUCAAAUUCGGCGAAACCUAAGCGCCCGCCCGGGCGUAUGGCAACGCAGAGCCAAGCUUCGGCGCCUGCGCCGAUGCAGGUGUAGAGACUAGACGGCACCCACCUAAGGCCAACGGUAUGGUGAAGGCAUAGUCCAGGGAGAGGCGAAAGUCACACAAACCGG [C82A A111C A145C C150G U176A] is 0.00906; for GUGCCUUGCGCCGGGAAACCACGCAAGGGAUGGUGUCAAAUUCGGCGAAACCUAAGCGCCCGCCCGGGCGUAUGGCAACGCAGAGCCAAGCUUCGGCGCCUGCGCCGAUGCAGGUGUAGAGACUAGACGGCACCCACCUAAGGCCAACGGUAUGGUGAAGGCAUAGUCCAGGGAGCGGCGAAAGUCACACAAACCGG [C82A A111C A145C C150G U176C] it is 0.016.
As to GUGCCUUGCGCCGGGAAACCACGCAAGGGAUGGUGUCAAAUUCGGCGAAACCUAAGCGCCCGCCCGGGCGUAUGGCAACGCAGAGCCAAGCUUCGGCGCCUGCGCCGAUGCAGGUGUAGAGACUAGACGGCACCCACCUAAGGCCAACGGUAUGGUGAAGGCAUAGUCCAGGGAGGGGCGAAAGUCACACAAACCGG [C82A A111C A145C C150G U176G], the reverse-splicing fitness amounted to 0.00408.
Consider GUGCCUUGCGCCGGGAAACCACGCAAGGGAUGGUGUCAAAUUCGGCGAAACCUAAGCGCCCGCCCGGGCGUAUGGCAACGCAGAGCCAAGCUUCGGCGCCUGCGCCGAUGCAGGUGUAGAGACUAGACGGCACCCACCUAAGGCCAACGGUAUGGUGAAGGCAUAGUCAAGGGAGGGGCGAAAGUCACACAAACCGG [C82A A111C A145C C150G C169A U176G], for which the reverse-splicing fitness was determined as 0.00742.
Regarding GUGCCUUGCGCCGGGAAACCACGCAAGGGAUGGUGUCAAAUUCGGCGAAACCUAAGCGCCCGCCCGGGCGUAUGGCAACGCAGAGCCAAGCUUCGGCGCCUGCGCCGAUGCAGGUGUAGAGACUAGACGGCACCCACCUAAGGCCAACGGUAUGGUGAAGGCAUAGUCAAGGGAGCGGCGAAAGUCACACAAACCGG [C82A A111C A145C C150G C169A U176C], the reverse-splicing fitness was 0.00911.
As to GUGCCUUGCGCCGGGAAACCACGCAAGGGAUGGUGUCAAAUUCGGCGAAACCUAAGCGCCCGCCCGGGCGUAUGGCAACGCAGAGCCAAGCUUCGGCGCCUGCGCCGAUGCAGGUGUAGAGACUAGACGGCACCCACCUAAGGCCAACGGUAUGGUGAAGGCAUAGUCAAGGGAGAGGCGAAAGUCACACAAACCGG [C82A A111C A145C C150G C169A U176A], the reverse-splicing fitness was 0.00837.
With GUGCCUUGCGCCGGGAAACCACGCAAGGGAUGGUGUCAAAUUCGGCGAAACCUAAGCGCCCGCCCGGGCGUAUGGCAACGCAGAGCCAAGCUUCGGCGCCUGCGCCGAUGCAGGUGUAGAGACUAGACGGCACCCACCUAAGGCCAACGGUAUGGUGAAGGCAUAGUCAAGGGAGUGGCGAAAGUCACACAAACCGG [C82A A111C A145C C150G C169A], the reverse-splicing fitness came out at 0.00764.
As to GUGCCUUGCGCCGGGAAACCACGCAAGGGAUGGUGUCAAAUUCGGCGAAACCUAAGCGCCCGCCCGGGCGUAUGGCAACGCAGAGCCAAGCUUCGGCGCCUGCGCCGAUGCAGGUGUAGAGACUAGACGGCACCCACCUAAGGCCAACGGUAUGGUGAAGGCAUAGUCUAGGGAGUGGCGAAAGUCACACAAACCGG [C82A A111C A145C C150G C169U], the reverse-splicing fitness was determined as 0.0102.
Next, GUGCCUUGCGCCGGGAAACCACGCAAGGGAUGGUGUCAAAUUCGGCGAAACCUAAGCGCCCGCCCGGGCGUAUGGCAACGCAGAGCCAAGCUUCGGCGCCUGCGCCGAUGCAGGUGUAGAGACUAGACGGCACCCACCUAAGGCCAACGGUAUGGUGAAGGCAUAGUCGAGGGAGUGGCGAAAGUCACACAAACCGG [C82A A111C A145C C150G C169G]: 0.00663.

The record behind these values is the RNAGym collection of RNA variant scans (doi:10.1093/molbev/msab373).
